Source: publication PMC9048828, “The Acetyltransferase RibT From Bacillus subtilis Affects in vivo Dynamics of the Multimeric Heavy Riboflavin Synthase Complex” (Frontiers in Microbiology, 2022)

B1: Strep-RibH (enzyme, Bacillus subtilis, UniProt P11998 1-154, looked up)
chain: MNIIQGNLVGTGLKIGIVVGRFNDFITSKLLSGAEDALLRHGVDTNDIDVAWVPGAFEIPFAAKKMAETKKYDAIITLGTVIRGATTHYDYVCNEAAKGIAQAANTTGVPVIFGIVTTENIEQAIERAGTKAGNKGVDCAVSAIEMANLNRSFE
notes: RibH, lumazine synthase of Bacillus subtilis; printed mass of Strep-RibH 17.9 kDa; Cloning and purification are described in the Supplementary Data; The printed mass fits the whole protein with its tag (surmised); also called wt-like Strep-RibH; source: E. coli BL21 (DE3) Star, purified (Strep-Tactin, SEC); also coproduced with His6-RibE; not shown: Strep tag, N-terminal, kept; copies: 60
B2: Strep-RibH^K29E (enzyme, Bacillus subtilis, UniProt P11998 1-154, looked up)
chain: MNIIQGNLVGTGLKIGIVVGRFNDFITSELLSGAEDALLRHGVDTNDIDVAWVPGAFEIPFAAKKMAETKKYDAIITLGTVIRGATTHYDYVCNEAAKGIAQAANTTGVPVIFGIVTTENIEQAIERAGTKAGNKGVDCAVSAIEMANLNRSFE
notes: RibH, lumazine synthase of Bacillus subtilis, with K29E; printed mass 17.9 kDa; Cloning and purification are described in the Supplementary Data; source: E. coli BL21 (DE3) Star, purified (Strep-Tactin, SEC); also coproduced with His6-RibE; not shown: Strep tag, N-terminal, kept; copies: 60
B3: Strep-RibH^K29R (enzyme, Bacillus subtilis, UniProt P11998 1-154, looked up)
chain: MNIIQGNLVGTGLKIGIVVGRFNDFITSRLLSGAEDALLRHGVDTNDIDVAWVPGAFEIPFAAKKMAETKKYDAIITLGTVIRGATTHYDYVCNEAAKGIAQAANTTGVPVIFGIVTTENIEQAIERAGTKAGNKGVDCAVSAIEMANLNRSFE
notes: RibH, lumazine synthase of Bacillus subtilis, with K29R; printed mass 17.9 kDa; Cloning and purification are described in the Supplementary Data; the tag is likely N-terminal as in Strep-RibH (surmised); source: E. coli BL21 (DE3) Star, purified (Strep-Tactin, SEC); also coproduced with His6-RibE; copies: 60

Target: the molecule itself
Assay: pull-down + SEC; coproduced in E. coli BL21 Star, purified by Strep-Tactin affinity chromatography followed by SEC; pooled 60-mer peak (~1 MDa) analysed by SDS-PAGE

Protein	stoichiometry N
B1	60
B2	60
B3	60
